According to publication PMC9352680, “A comprehensive thermodynamic model for RNA binding by the Saccharomyces cerevisiae Pumilio protein PUF4”:

Target: T1, PUF4 RNA-binding domain (Saccharomyces cerevisiae, UniProt P25339 537-888)
T1 sequence: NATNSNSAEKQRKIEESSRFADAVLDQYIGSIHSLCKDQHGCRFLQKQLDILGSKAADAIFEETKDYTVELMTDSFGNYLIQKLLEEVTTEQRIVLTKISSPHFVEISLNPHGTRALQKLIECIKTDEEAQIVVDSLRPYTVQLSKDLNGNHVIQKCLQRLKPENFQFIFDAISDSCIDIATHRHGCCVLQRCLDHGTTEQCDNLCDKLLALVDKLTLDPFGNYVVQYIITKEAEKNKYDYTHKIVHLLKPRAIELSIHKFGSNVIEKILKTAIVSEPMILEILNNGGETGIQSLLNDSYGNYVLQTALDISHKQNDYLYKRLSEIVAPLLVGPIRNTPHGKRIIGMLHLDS
Experiment: Mg; RNA-MaP; 20 mM Na-HEPES pH 7.4, 30 mM KOAc, 0.75 mM MgCl2, 0.1% Tween-20, 5% glycerol, 0.1 mg/mL BSA, 2 mM DTT; 25 C; 0.0125-409.6 nM protein
Settings: tags: N-His6-TEV cleaved; C-SNAP kept, Cy3B-labelled; label: tethered on chip by stalled RNA polymerase

UCUCUUUCUAUAUAUUAUCUCUCUU (ssRNA) [Id_ii_S1_P4E.3_K4.2_C4.2_[C-2T]_[T-1C]_H4.2_A4.1_F4.1_T4.2_[G10T]_[T11C]]
Kd: 17.2 nM

UCUCUUUCUAUAUAUUAUAUCUCUU (ssRNA) [Id_ii_S1_P4E.3_K4.2_C4.2_[C-2T]_[T-1C]_H4.2_A4.1_F4.1_T4.2_[G10T]_[T11A]]
Kd: 34.9 nM

UCUCUUUCUAUAUAUUAUUUCUCUU (ssRNA) [Id_ii_S1_P4E.3_K4.2_C4.2_[C-2T]_[T-1C]_H4.2_A4.1_F4.1_T4.2_[G10T]]
Kd: 21.6 nM

UCUCUUUCUAUAUAUUAAGUCUCUU (ssRNA) [Id_ii_S1_P4E.3_K4.2_C4.2_[C-2T]_[T-1C]_H4.2_A4.1_F4.1_T4.2_[G10A]_[T11G]]
Kd: 130 nM

UCUCUUUCUAUAUAUUAAAUCUCUU (ssRNA) [Id_ii_S1_P4E.3_K4.2_C4.2_[C-2T]_[T-1C]_H4.2_A4.1_F4.1_T4.2_[G10A]_[T11A]]
Kd: 61.2 nM

UCUCUUUCUAUAUAUUAAUUCUCUU (ssRNA) [Id_ii_S1_P4E.3_K4.2_C4.2_[C-2T]_[T-1C]_H4.2_A4.1_F4.1_T4.2_[G10A]]
Kd: 39.7 nM

UCUCUUUGUGUGUUAUCUCUU (ssRNA) [Ib_S1_P4E.1_K4.1_C4.1_H4.1_[A4G]_A4.1_[A6G]_F4.1_T4.1]
Kd: 43.8 nM

UCUCUUUAUAUAUAUUACGUCUCUU (ssRNA) [Id_ii_S1_P4E.3_K4.2_C4.2_[C-2T]_[T-1A]_H4.2_A4.1_F4.1_T4.2_[G10C]_[T11G]]
Kd: 21.9 nM

UCUCUUUAUAUAUAUUACCUCUCUU (ssRNA) [Id_ii_S1_P4E.3_K4.2_C4.2_[C-2T]_[T-1A]_H4.2_A4.1_F4.1_T4.2_[G10C]_[T11C]]
Kd: 29.6 nM

UCUCUUUAUAUAUAUUACAUCUCUU (ssRNA) [Id_ii_S1_P4E.3_K4.2_C4.2_[C-2T]_[T-1A]_H4.2_A4.1_F4.1_T4.2_[G10C]_[T11A]]
Kd: 28.9 nM

UCUCUUUAUAUAUAUUACUUCUCUU (ssRNA) [Id_ii_S1_P4E.3_K4.2_C4.2_[C-2T]_[T-1A]_H4.2_A4.1_F4.1_T4.2_[G10C]]
Kd: 20.6 nM

UCUCUUUAUAUAUAUUAUCUCUCUU (ssRNA) [Id_ii_S1_P4E.3_K4.2_C4.2_[C-2T]_[T-1A]_H4.2_A4.1_F4.1_T4.2_[G10T]_[T11C]]
Kd: 24.5 nM

UCUCUUUAUAUAUAUUAACUCUCUU (ssRNA) [Id_ii_S1_P4E.3_K4.2_C4.2_[C-2T]_[T-1A]_H4.2_A4.1_F4.1_T4.2_[G10A]_[T11C]]
Kd: 15.7 nM

UCUCUUUAUAUAUAUUAAAUCUCUU (ssRNA) [Id_ii_S1_P4E.3_K4.2_C4.2_[C-2T]_[T-1A]_H4.2_A4.1_F4.1_T4.2_[G10A]_[T11A]]
Kd: 38.1 nM

UCUCUUUAUAUAUAUUAGCUCUCUU (ssRNA) [Id_ii_S1_P4E.3_K4.2_C4.2_[C-2T]_[T-1A]_H4.2_A4.1_F4.1_T4.2_[T11C]]
Kd: 12.7 nM

UCUCUUUAUAUAUAUUAGUUCUCUU (ssRNA) [Id_ii_S1_P4E.3_K4.2_C4.2_[C-2T]_[T-1A]_H4.2_A4.1_F4.1_T4.2]
Kd: 9.8 nM

UCUCUUUUUAUAUAUUACGUCUCUU (ssRNA) [Id_ii_S1_P4E.3_K4.2_C4.2_[C-2T]_H4.2_A4.1_F4.1_T4.2_[G10C]_[T11G]]
Kd: 30.1 nM

UCUCUUUGUGUUUUAUCUCUU (ssRNA) [Ib_S1_P4E.1_K4.1_C4.1_H4.1_[A4G]_A4.1_[A6T]_F4.1_T4.1]
Kd: 13.1 nM

UCUCUUUUUAUAUAUUACCUCUCUU (ssRNA) [Id_ii_S1_P4E.3_K4.2_C4.2_[C-2T]_H4.2_A4.1_F4.1_T4.2_[G10C]_[T11C]]
Kd: 26.2 nM

UCUCUUUUUAUAUAUUACUUCUCUU (ssRNA) [Id_ii_S1_P4E.3_K4.2_C4.2_[C-2T]_H4.2_A4.1_F4.1_T4.2_[G10C]]
Kd: 21 nM

UCUCUUUUUAUAUAUUAUGUCUCUU (ssRNA) [Id_ii_S1_P4E.3_K4.2_C4.2_[C-2T]_H4.2_A4.1_F4.1_T4.2_[G10T]_[T11G]]
Kd: 17.9 nM

UCUCUUUUUAUAUAUUAUCUCUCUU (ssRNA) [Id_ii_S1_P4E.3_K4.2_C4.2_[C-2T]_H4.2_A4.1_F4.1_T4.2_[G10T]_[T11C]]
Kd: 19.8 nM

UCUCUUUUUAUAUAUUAUAUCUCUU (ssRNA) [Id_ii_S1_P4E.3_K4.2_C4.2_[C-2T]_H4.2_A4.1_F4.1_T4.2_[G10T]_[T11A]]
Kd: 22.2 nM

UCUCUUUUUAUAUAUUAAGUCUCUU (ssRNA) [Id_ii_S1_P4E.3_K4.2_C4.2_[C-2T]_H4.2_A4.1_F4.1_T4.2_[G10A]_[T11G]]
Kd: 485 nM

UCUCUUUUUAUAUAUUAACUCUCUU (ssRNA) [Id_ii_S1_P4E.3_K4.2_C4.2_[C-2T]_H4.2_A4.1_F4.1_T4.2_[G10A]_[T11C]]
Kd: 31.8 nM

UCUCUUUUUAUAUAUUAAAUCUCUU (ssRNA) [Id_ii_S1_P4E.3_K4.2_C4.2_[C-2T]_H4.2_A4.1_F4.1_T4.2_[G10A]_[T11A]]
Kd: 55.1 nM

UCUCUUUUUAUAUAUUAAUUCUCUU (ssRNA) [Id_ii_S1_P4E.3_K4.2_C4.2_[C-2T]_H4.2_A4.1_F4.1_T4.2_[G10A]]
Kd: 28.9 nM

UCUCUUUUUAUAUAUUAGGUCUCUU (ssRNA) [Id_ii_S1_P4E.3_K4.2_C4.2_[C-2T]_H4.2_A4.1_F4.1_T4.2_[T11G]]
Kd: 22.6 nM

UCUCUUUGUCUGUUAUCUCUU (ssRNA) [Ib_S1_P4E.1_K4.1_C4.1_H4.1_[A4C]_A4.1_[A6G]_F4.1_T4.1]
Kd: 626 nM

UCUCUUUUUAUAUAUUAGCUCUCUU (ssRNA) [Id_ii_S1_P4E.3_K4.2_C4.2_[C-2T]_H4.2_A4.1_F4.1_T4.2_[T11C]]
Kd: 10.3 nM

UCUCUUUUUAUAUAUUAGUUCUCUU (ssRNA) [Id_ii_S1_P4E.3_K4.2_C4.2_[C-2T]_H4.2_A4.1_F4.1_T4.2]
Kd: 8.51 nM

UCUCUUAGUAUAUAUUAUCUCUCUU (ssRNA) [Id_ii_S1_P4E.3_K4.2_C4.2_[C-2A]_[T-1G]_H4.2_A4.1_F4.1_T4.2_[G10T]_[T11C]]
Kd: 43 nM
